Experimental data taken from paper PMC9081242 (Structure (London, England : 1993), 2022).
One block for each molecule: values may come before it.

Key:
[1] = target: CCM1 E5R1 (non-glycosylated, spin-labelled) (human) (UniProt P13688); assay: continuous-wave EPR
[2] = target: CCM1 D94R1 (non-glycosylated, spin-labelled) (human) (UniProt P13688); assay: continuous-wave EPR
[3] = target: gCCM1 Q103R1 (single GlcNAc modifications, spin-labelled) (human) (UniProt P13688); assay: continuous-wave EPR
[4] = target: gCCM1 E5R1 (single GlcNAc modifications, spin-labelled) (human) (UniProt P13688); assay: continuous-wave EPR
[5] = target: cgCCM1 Q103R1 (complex N-linked glycans, spin-labelled) (human) (UniProt P13688); assay: continuous-wave EPR
[6] = target: CCM1 Q103R1 (non-glycosylated, spin-labelled) (human) (UniProt P13688); assay: continuous-wave EPR
[7] = target: cgCCM1 E5R1 (complex N-linked glycans, spin-labelled) (human) (UniProt P13688); assay: continuous-wave EPR
SEC = target: the molecule itself; assay: SEC

stoichiometry N [1]: 2
Molecule: CCM1 E5R1 (non-glycosylated, spin-labelled) (from UniProt P13688 69-175) (domain or fragment)

stoichiometry N [2]: 2
Molecule: CCM1 D94R1 (non-glycosylated, spin-labelled) (from UniProt P13688 69-175) (domain or fragment)

stoichiometry N [3]: 2
Molecule: gCCM1 Q103R1 (single GlcNAc modifications, spin-labelled) (from UniProt P13688 68-175) (domain or fragment)

stoichiometry N [4]: 2
Molecule: gCCM1 E5R1 (single GlcNAc modifications, spin-labelled) (from UniProt P13688 68-175) (domain or fragment)

stoichiometry N [5]: 2
Molecule: cgCCM1 Q103R1 (complex N-linked glycans, spin-labelled) (from UniProt P13688 68-175) (domain or fragment)

stoichiometry N [6]: 2
Molecule: CCM1 Q103R1 (non-glycosylated, spin-labelled) (from UniProt P13688 69-175) (domain or fragment)

stoichiometry N [7]: 2
Molecule: cgCCM1 E5R1 (complex N-linked glycans, spin-labelled) (from UniProt P13688 68-175) (domain or fragment)

B1: non-glycosylated CEACAM1 N-terminal Ig-like domain (CCM1) (domain or fragment, human, UniProt P13688 35-141, looked up)
chain: QLTTESMPFNVAEGKEVLLLVHNLPQQLFGYSWYKGERVDGNRQIVGYAIGTQQATPGPANSGRETIYPNASLLIQNVTQNDTGFYTLQVIKSDLVNEEATGQFHVY
stoichiometry N (SEC): 2
